Reference: patent publication US12497462 (IMMUNITYBIO, dated 2025)
Where a chain is given by its changes, count along the chain named.

Columns and labels:
[1] = target: T1, Human CD26-Fc fusion protein (human); test: ELISA, CD26-Fc coated, purified IgG1 kappa antibody in 3-fold steps, goat anti-human kappa-HRP/ABTS
T1 construct: also called CD26/beads

goat anti-human IgG = test: ELISA, goat anti-human IgG coated (control plate), goat anti-human kappa-HRP/ABTS
[2] = target: T2, Human CD26 on transfected CHO cells (human, UniProt P27487 1-766); test: flow cytometry on human CD26-transfected CHO cells, antibody 50 nM, goat anti-human IgG-PE
T2 construct: whole, on cells; also called CHO26; CD26 positive CHO cells
T2 sequence (P27487 whole entry): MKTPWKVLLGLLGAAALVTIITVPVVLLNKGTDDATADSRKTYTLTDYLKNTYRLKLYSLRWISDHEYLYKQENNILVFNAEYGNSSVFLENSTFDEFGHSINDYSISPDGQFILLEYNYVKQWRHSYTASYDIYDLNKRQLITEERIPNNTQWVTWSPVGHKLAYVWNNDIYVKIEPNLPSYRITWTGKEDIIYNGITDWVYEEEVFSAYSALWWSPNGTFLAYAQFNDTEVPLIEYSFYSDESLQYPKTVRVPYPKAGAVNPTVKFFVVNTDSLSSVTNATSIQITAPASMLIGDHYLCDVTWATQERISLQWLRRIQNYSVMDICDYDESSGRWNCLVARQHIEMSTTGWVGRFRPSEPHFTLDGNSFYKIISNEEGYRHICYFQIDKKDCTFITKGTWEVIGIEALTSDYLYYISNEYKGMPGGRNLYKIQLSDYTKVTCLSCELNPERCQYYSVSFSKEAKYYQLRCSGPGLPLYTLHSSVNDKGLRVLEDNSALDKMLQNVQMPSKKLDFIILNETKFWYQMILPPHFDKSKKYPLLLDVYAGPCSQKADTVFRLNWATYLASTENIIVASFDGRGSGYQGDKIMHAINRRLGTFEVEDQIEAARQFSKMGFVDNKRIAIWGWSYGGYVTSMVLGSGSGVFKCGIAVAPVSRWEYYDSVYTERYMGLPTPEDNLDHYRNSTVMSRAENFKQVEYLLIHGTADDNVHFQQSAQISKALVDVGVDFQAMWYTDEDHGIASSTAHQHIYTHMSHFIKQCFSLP

[3] = target: T1, Human CD26-Fc fusion protein; test: competition ELISA on coated CD26-Fc (5 µg/mL): ADA is varied and the blocked molecule is biotinylated CD26Ab-01D at 5 nM, read with SAHRP/ABTS
[4] = target: T1, Human CD26-Fc fusion protein; test: ELISA, CD26-Fc coated, purified IgG1 kappa antibody, goat anti-human kappa-HRP/ABTS

T1 sequence (chain, as listed by the source): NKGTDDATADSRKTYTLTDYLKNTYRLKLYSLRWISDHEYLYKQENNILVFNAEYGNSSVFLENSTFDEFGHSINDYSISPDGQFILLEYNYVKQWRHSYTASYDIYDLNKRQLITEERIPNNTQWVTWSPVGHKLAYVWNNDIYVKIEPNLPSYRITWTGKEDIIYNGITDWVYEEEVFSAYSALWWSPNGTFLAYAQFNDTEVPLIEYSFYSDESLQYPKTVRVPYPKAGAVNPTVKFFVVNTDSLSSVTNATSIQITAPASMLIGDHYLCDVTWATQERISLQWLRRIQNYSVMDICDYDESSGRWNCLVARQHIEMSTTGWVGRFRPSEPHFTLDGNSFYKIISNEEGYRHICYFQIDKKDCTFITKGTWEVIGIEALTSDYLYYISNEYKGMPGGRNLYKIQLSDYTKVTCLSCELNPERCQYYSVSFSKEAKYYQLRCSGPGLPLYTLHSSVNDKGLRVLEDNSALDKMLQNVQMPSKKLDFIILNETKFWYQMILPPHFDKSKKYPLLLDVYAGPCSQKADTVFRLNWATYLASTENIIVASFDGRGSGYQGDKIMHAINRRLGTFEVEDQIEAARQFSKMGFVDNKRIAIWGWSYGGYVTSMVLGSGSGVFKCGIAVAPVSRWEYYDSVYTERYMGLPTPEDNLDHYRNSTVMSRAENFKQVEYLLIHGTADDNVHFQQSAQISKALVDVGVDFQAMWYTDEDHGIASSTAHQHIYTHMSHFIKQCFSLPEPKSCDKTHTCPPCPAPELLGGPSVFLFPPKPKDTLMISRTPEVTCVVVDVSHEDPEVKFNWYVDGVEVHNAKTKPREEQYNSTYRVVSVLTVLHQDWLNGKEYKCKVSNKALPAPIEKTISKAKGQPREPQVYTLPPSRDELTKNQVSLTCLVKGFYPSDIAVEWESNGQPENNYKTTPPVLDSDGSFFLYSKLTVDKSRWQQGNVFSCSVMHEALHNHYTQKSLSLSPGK

B1: CD26Ab-04A anti-CD26 IgG1 kappa monoclonal antibody (antibody, V domains shown)
VH: EVQLVESGGGLVQPGGSLRLSCAASGFAINNYSIHWVRQAPGKGLEWVASIWPYGGFTSYADSVKGRFTISADTSKNTAYLQMNSLRAEDTAVYYCARFFSSYGDMDYWGQGTLVTVSS
VL: DIQMTQSPSSLSASVGDRVTITCRASQDVSGGVAWYQQKPGKAPKLLIYGTSGLYSGVPSRFSGSGSGTDFTLTISSLQPEDFATYYCQQGGDWPITFGQGTKVEIKR
notes: Used biotinylated in some assays; also called CD26-04A
B1 was tested, and the “EC50 (read off the curve)” value [1] was ~1 nM, the “EC50 (read off the curve)” value (goat anti-human IgG) was ~0.4 nM and the MFI [2] was 4360.

B2: Human adenosine deaminase (ADA) (enzyme, UniProt P00813 1-363, looked up)
chain: MAQTPAFDKPKVELHVHLDGSIKPETILYYGRRRGIALPANTAEGLLNVIGMDKPLTLPDFLAKFDYYMPAIAGCREAIKRIAYEFVEMKAKEGVVYVEVRYSPHLLANSKVEPIPWNQAEGDLTPDEVVALVGQGLQEGERDFGVKARSILCCMRHQPNWSPKVVELCKKYQQQTVVAIDLAGDETIPGSSLLPGHVQAYQEAVKSGIHRTVHAGEVGSAEVVKEAVDILKTERLGHGYHTLEDQALYNRLRQENMHFEICPWSSYLTGAWKPDTEHAVIRLKNDQANYSLNTDDPLIFKSTLDTDYQMTKRDMGFTEEEFKRLNINAAKSSFLPEDEKRELLDLLYKAYGMPPSASAGQNL
notes: Bought reagent; also called Human ADA (R&D systems)
B2 was tested, and the “IC50 (read off the curve)” value [3] was ~0.01 nM.

B3: CD26Ab-01D anti-CD26 IgG1 kappa monoclonal antibody (antibody, V domains shown)
VH: EVQLVESGGGLVQPGGSLRLSCAASGFTINDSYIHWVRQAPGKGLEWVAWIWPYGGFTYYADSVKGRFTISADTSKNTAYLQMNSLRAEDTAVYYCARFLGSSSIMDYWGQGTLVTVSS
VL: DIQMTQSPSSLSASVGDRVTITCRASQDVNSNVAWYQQKPGKAPKLLIFGSGGLYSGVPSRFSGSGSGTDFTLTISSLQPEDFATYYCQQYSSYPLTFGQGTKVETKR
With B3 the binding result [1] was “binds” and the MFI [2] was 1700.

B4: CD26Ab-10B anti-CD26 IgG1 kappa monoclonal antibody (antibody, V domains shown)
VH: B1 VH with A28T, N30S, N31D, F100H, Y103S
VL: B3 VL with N30W, S31G, N32Y, G50A, G53A, S92F, S93N, Y94W, L96I, T106I
notes: Very low production; not biotinylated
B4 was tested, and the MFI [2] was 105 and the binding result [4] was “no binding (tested: 500000 pM)”.
